Blank lines part the entries; values can stand above or below the binder they belong to. Numbered stars: 1 amine (or outer) side, 2 acyl side, 3 side chain; on linkers, the order of the positions; unused ones are H or OH. * marks the point of attachment. C20 diacid = O=C(O)CCCCCCCCCCCCCCCCCCC(=O)*; C18 diacid = O=C(O)CCCCCCCCCCCCCCCCC(=O)*; γGlu = O=C(O)[C@H](CCC(=O)[*:2])N[*:1]
Target: T1, human calcitonin receptor (human, UniProt P30988 25-474)
T1 construct: whole, on cells; also called hCT-R; hCTR
T1 sequence (looked up): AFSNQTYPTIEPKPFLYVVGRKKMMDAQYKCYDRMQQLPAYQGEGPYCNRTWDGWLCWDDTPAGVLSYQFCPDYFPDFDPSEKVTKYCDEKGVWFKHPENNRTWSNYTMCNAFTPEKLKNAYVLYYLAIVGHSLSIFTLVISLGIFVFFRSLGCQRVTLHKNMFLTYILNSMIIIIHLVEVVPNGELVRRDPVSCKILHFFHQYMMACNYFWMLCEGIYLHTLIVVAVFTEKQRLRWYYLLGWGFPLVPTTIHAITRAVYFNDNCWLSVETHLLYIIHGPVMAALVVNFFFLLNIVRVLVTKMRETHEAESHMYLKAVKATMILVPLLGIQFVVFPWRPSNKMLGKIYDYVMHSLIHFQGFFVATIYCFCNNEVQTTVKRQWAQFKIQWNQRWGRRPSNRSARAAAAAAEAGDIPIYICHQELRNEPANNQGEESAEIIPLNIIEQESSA
Assay: whole-cell competition vs 125I-human calcitonin (Assay VIIa)
Procedure, shortened: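 BHK tk'ts 13 cells stably co-expressing human calcitonin receptor and a CRE-luciferase reporter, seeded overnight at 37 °C. Bound tracer counted by scintillation after cold HBSS washes and NaOH/SDS lysis; IC₅₀ from one-site competition fit taken as receptor affinity.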

B1: [N-terminal(C18 diacid-gGlu), des1, 30S, 31G, 32P]mimylin (peptide)
peptide: {C18 diacid-γGlu}-ASELSTAALGRLSAELHELATLPRTETGSGPP-NH2
SMILES: CC(C)C[C@H](NC(=O)[C@H](C)NC(=O)[C@H](C)NC(=O)[C@@H](NC(=O)[C@H](CO)NC(=O)[C@H](CC(C)C)NC(=O)[C@H](CCC(=O)O)NC(=O)[C@H](CO)NC(=O)[C@H](C)NC(=O)CC[C@H](NC(=O)CCCCCCCCCCCCCCCCC(=O)O)C(=O)O)[C@@H](C)O)C(=O)NCC(=O)N[C@@H](CCCNC(=N)N)C(=O)N[C@@H](CC(C)C)C(=O)N[C@@H](CO)C(=O)N[C@@H](C)C(=O)N[C@@H](CCC(=O)O)C(=O)N[C@@H](CC(C)C)C(=O)N[C@@H](Cc1c[nH]cn1)C(=O)N[C@@H](CCC(=O)O)C(=O)N[C@@H](CC(C)C)C(=O)N[C@@H](C)C(=O)N[C@H](C(=O)N[C@@H](CC(C)C)C(=O)N1CCC[C@H]1C(=O)N[C@@H](CCCNC(=N)N)C(=O)N[C@H](C(=O)N[C@@H](CCC(=O)O)C(=O)N[C@H](C(=O)NCC(=O)N[C@@H](CO)C(=O)NCC(=O)N1CCC[C@H]1C(=O)N1CCC[C@H]1C(N)=O)[C@@H](C)O)[C@@H](C)O)[C@@H](C)O
notes: also called Ex. #75
IC50: 20.5 nM

B2: [N-terminal(C20 diacid-gGlu), des1, 12H, 25H, 30T, 31G, 32T]mimylin (peptide)
peptide: {C20 diacid-γGlu}-ASELSTAALGHLSAELHELATLPHTETGTGTP-NH2
SMILES: CC(C)C[C@H](NC(=O)[C@H](C)NC(=O)[C@H](C)NC(=O)[C@@H](NC(=O)[C@H](CO)NC(=O)[C@H](CC(C)C)NC(=O)[C@H](CCC(=O)O)NC(=O)[C@H](CO)NC(=O)[C@H](C)NC(=O)CC[C@H](NC(=O)CCCCCCCCCCCCCCCCCCC(=O)O)C(=O)O)[C@@H](C)O)C(=O)NCC(=O)N[C@@H](Cc1c[nH]cn1)C(=O)N[C@@H](CC(C)C)C(=O)N[C@@H](CO)C(=O)N[C@@H](C)C(=O)N[C@@H](CCC(=O)O)C(=O)N[C@@H](CC(C)C)C(=O)N[C@@H](Cc1c[nH]cn1)C(=O)N[C@@H](CCC(=O)O)C(=O)N[C@@H](CC(C)C)C(=O)N[C@@H](C)C(=O)N[C@H](C(=O)N[C@@H](CC(C)C)C(=O)N1CCC[C@H]1C(=O)N[C@@H](Cc1c[nH]cn1)C(=O)N[C@H](C(=O)N[C@@H](CCC(=O)O)C(=O)N[C@H](C(=O)NCC(=O)N[C@H](C(=O)NCC(=O)N[C@H](C(=O)N1CCC[C@H]1C(N)=O)[C@@H](C)O)[C@@H](C)O)[C@@H](C)O)[C@@H](C)O)[C@@H](C)O
notes: also called Ex. #93
IC50: 1.03 nM

B3: [N-terminal(C20 diacid-gGlu), des1, 9T, 21S, 23Y, 30S, 31G]mimylin (peptide)
peptide: {C20 diacid-γGlu}-ASELSTATLGRLSAELHELSTYPRTETGSGSP-NH2
SMILES: CC(C)C[C@H](NC(=O)[C@H](CCCNC(=N)N)NC(=O)CNC(=O)[C@H](CC(C)C)NC(=O)[C@@H](NC(=O)[C@H](C)NC(=O)[C@@H](NC(=O)[C@H](CO)NC(=O)[C@H](CC(C)C)NC(=O)[C@H](CCC(=O)O)NC(=O)[C@H](CO)NC(=O)[C@H](C)NC(=O)CC[C@H](NC(=O)CCCCCCCCCCCCCCCCCCC(=O)O)C(=O)O)[C@@H](C)O)[C@@H](C)O)C(=O)N[C@@H](CO)C(=O)N[C@@H](C)C(=O)N[C@@H](CCC(=O)O)C(=O)N[C@@H](CC(C)C)C(=O)N[C@@H](Cc1c[nH]cn1)C(=O)N[C@@H](CCC(=O)O)C(=O)N[C@@H](CC(C)C)C(=O)N[C@@H](CO)C(=O)N[C@H](C(=O)N[C@@H](Cc1ccc(O)cc1)C(=O)N1CCC[C@H]1C(=O)N[C@@H](CCCNC(=N)N)C(=O)N[C@H](C(=O)N[C@@H](CCC(=O)O)C(=O)N[C@H](C(=O)NCC(=O)N[C@@H](CO)C(=O)NCC(=O)N[C@@H](CO)C(=O)N1CCC[C@H]1C(N)=O)[C@@H](C)O)[C@@H](C)O)[C@@H](C)O
notes: also called Ex. #92
IC50: 2.94 nM

Binder: {C20 diacid-γGlu}-ASGLSTAALGRLSAELHELATYPRTETGSGSP-NH2 (also called Ex. #79) [[N-terminal(C20 diacid-gGlu), des1, 4G, 23Y, 30S, 31G]mimylin]
IC50: 0.385 nM

B5: [N-terminal(C18 diacid-gGlu), des1, 30S]mimylin (peptide)
peptide: {C18 diacid-γGlu}-ASELSTAALGRLSAELHELATLPRTETGSESP-NH2
SMILES: CC(C)C[C@H](NC(=O)[C@H](C)NC(=O)[C@H](C)NC(=O)[C@@H](NC(=O)[C@H](CO)NC(=O)[C@H](CC(C)C)NC(=O)[C@H](CCC(=O)O)NC(=O)[C@H](CO)NC(=O)[C@H](C)NC(=O)CC[C@H](NC(=O)CCCCCCCCCCCCCCCCC(=O)O)C(=O)O)[C@@H](C)O)C(=O)NCC(=O)N[C@@H](CCCNC(=N)N)C(=O)N[C@@H](CC(C)C)C(=O)N[C@@H](CO)C(=O)N[C@@H](C)C(=O)N[C@@H](CCC(=O)O)C(=O)N[C@@H](CC(C)C)C(=O)N[C@@H](Cc1c[nH]cn1)C(=O)N[C@@H](CCC(=O)O)C(=O)N[C@@H](CC(C)C)C(=O)N[C@@H](C)C(=O)N[C@H](C(=O)N[C@@H](CC(C)C)C(=O)N1CCC[C@H]1C(=O)N[C@@H](CCCNC(=N)N)C(=O)N[C@H](C(=O)N[C@@H](CCC(=O)O)C(=O)N[C@H](C(=O)NCC(=O)N[C@@H](CO)C(=O)N[C@@H](CCC(=O)O)C(=O)N[C@@H](CO)C(=O)N1CCC[C@H]1C(N)=O)[C@@H](C)O)[C@@H](C)O)[C@@H](C)O
notes: also called Ex. #23
IC50: 0.541 nM

B7: [N-terminal(C20 diacid-gGlu), des1, 9S, 21S, 23Y, 30S, 31G, 33Y]mimylin (peptide)
peptide: {C20 diacid-γGlu}-ASELSTASLGRLSAELHELSTYPRTETGSGSY-NH2
SMILES: CC(C)C[C@H](NC(=O)[C@H](CO)NC(=O)[C@H](C)NC(=O)[C@@H](NC(=O)[C@H](CO)NC(=O)[C@H](CC(C)C)NC(=O)[C@H](CCC(=O)O)NC(=O)[C@H](CO)NC(=O)[C@H](C)NC(=O)CC[C@H](NC(=O)CCCCCCCCCCCCCCCCCCC(=O)O)C(=O)O)[C@@H](C)O)C(=O)NCC(=O)N[C@@H](CCCNC(=N)N)C(=O)N[C@@H](CC(C)C)C(=O)N[C@@H](CO)C(=O)N[C@@H](C)C(=O)N[C@@H](CCC(=O)O)C(=O)N[C@@H](CC(C)C)C(=O)N[C@@H](Cc1c[nH]cn1)C(=O)N[C@@H](CCC(=O)O)C(=O)N[C@@H](CC(C)C)C(=O)N[C@@H](CO)C(=O)N[C@H](C(=O)N[C@@H](Cc1ccc(O)cc1)C(=O)N1CCC[C@H]1C(=O)N[C@@H](CCCNC(=N)N)C(=O)N[C@H](C(=O)N[C@@H](CCC(=O)O)C(=O)N[C@H](C(=O)NCC(=O)N[C@@H](CO)C(=O)NCC(=O)N[C@@H](CO)C(=O)N[C@@H](Cc1ccc(O)cc1)C(N)=O)[C@@H](C)O)[C@@H](C)O)[C@@H](C)O
notes: also called Ex. #100
IC50: 2.82 nM

Results, then the binder that gave them:

IC50: 0.438 nM
Binder: {C20 diacid-γGlu}-ASELSTAALGHLSAELHELATLPRTETGSGSP-NH2 (also called Ex. #72) [[N-terminal(C20 diacid-gGlu), des1, 12H, 30S, 31G]mimylin]

IC50: 0.307 nM
B4: [N-terminal(C20 diacid-gGlu), des1, 21S, 23Y, 30S, 31G, 33Y]mimylin (peptide)
peptide: {C20 diacid-γGlu}-ASELSTAALGRLSAELHELSTYPRTETGSGSY-NH2
SMILES: CC(C)C[C@H](NC(=O)[C@H](C)NC(=O)[C@H](C)NC(=O)[C@@H](NC(=O)[C@H](CO)NC(=O)[C@H](CC(C)C)NC(=O)[C@H](CCC(=O)O)NC(=O)[C@H](CO)NC(=O)[C@H](C)NC(=O)CC[C@H](NC(=O)CCCCCCCCCCCCCCCCCCC(=O)O)C(=O)O)[C@@H](C)O)C(=O)NCC(=O)N[C@@H](CCCNC(=N)N)C(=O)N[C@@H](CC(C)C)C(=O)N[C@@H](CO)C(=O)N[C@@H](C)C(=O)N[C@@H](CCC(=O)O)C(=O)N[C@@H](CC(C)C)C(=O)N[C@@H](Cc1c[nH]cn1)C(=O)N[C@@H](CCC(=O)O)C(=O)N[C@@H](CC(C)C)C(=O)N[C@@H](CO)C(=O)N[C@H](C(=O)N[C@@H](Cc1ccc(O)cc1)C(=O)N1CCC[C@H]1C(=O)N[C@@H](CCCNC(=N)N)C(=O)N[C@H](C(=O)N[C@@H](CCC(=O)O)C(=O)N[C@H](C(=O)NCC(=O)N[C@@H](CO)C(=O)NCC(=O)N[C@@H](CO)C(=O)N[C@@H](Cc1ccc(O)cc1)C(N)=O)[C@@H](C)O)[C@@H](C)O)[C@@H](C)O
notes: also called Ex. #97

IC50: 0.628 nM
B6: [N-terminal(C20 diacid-gGlu), des1, 12K, 23Y, 25K, 30S, 31G, 33Y]mimylin (peptide)
peptide: {C20 diacid-γGlu}-ASELSTAALGKLSAELHELATYPKTETGSGSY-NH2
SMILES: CC(C)C[C@H](NC(=O)[C@H](C)NC(=O)[C@H](C)NC(=O)[C@@H](NC(=O)[C@H](CO)NC(=O)[C@H](CC(C)C)NC(=O)[C@H](CCC(=O)O)NC(=O)[C@H](CO)NC(=O)[C@H](C)NC(=O)CC[C@H](NC(=O)CCCCCCCCCCCCCCCCCCC(=O)O)C(=O)O)[C@@H](C)O)C(=O)NCC(=O)N[C@@H](CCCCN)C(=O)N[C@@H](CC(C)C)C(=O)N[C@@H](CO)C(=O)N[C@@H](C)C(=O)N[C@@H](CCC(=O)O)C(=O)N[C@@H](CC(C)C)C(=O)N[C@@H](Cc1c[nH]cn1)C(=O)N[C@@H](CCC(=O)O)C(=O)N[C@@H](CC(C)C)C(=O)N[C@@H](C)C(=O)N[C@H](C(=O)N[C@@H](Cc1ccc(O)cc1)C(=O)N1CCC[C@H]1C(=O)N[C@@H](CCCCN)C(=O)N[C@H](C(=O)N[C@@H](CCC(=O)O)C(=O)N[C@H](C(=O)NCC(=O)N[C@@H](CO)C(=O)NCC(=O)N[C@@H](CO)C(=O)N[C@@H](Cc1ccc(O)cc1)C(N)=O)[C@@H](C)O)[C@@H](C)O)[C@@H](C)O
notes: also called Ex. #101

Reference: patent US20160272683A1 (Novo Nordisk, published 2016)
